# Results published in the DeepSol protein solubility set.
# Assay: soluble on expression in E. coli; label from the status in PepcDB or PDB records
row,Sequence,soluble on expression in E. coli
1,MQRVDLNSDLGESFGAYTIGQDDRVLEHVTSANIACGYHAGDHNVMARTVKLAADKGMGIGAHPGFPDLLGFGRRNIQTDHKDIYNFIVYQVAALNGFCQLHRVRMQHVKPHGALYNMAAKDRVIAEAIAEAIYDIDPSLILFGLSGSELIKAGKKLGLTVANEVFADRTYQPDGTLTPRSEANALIKESERATEQVIQMVKESKVIAVDGSHIPIEADTICVHGDSPTALSFIERLHAQLQVEGVTVTKVSDFLFKLEHHHHHH,not soluble
2,MGSDKIHHHHHHMQGTQQSLPLAVVRGQAMTEMPQDLFIPPEALEVFLESFEGPLDLLLYLIRKQKLDVVDLPISQITAQYLEYIAMLTQARIELASDYLVMAATLAEIKSRLLLPRMVAEDEVEEDPRAQLIRQLKAYEVIKEASQKIDDLPRLERDVFQATAAPSPNIKPLVIPPDVSLFEIARAFGDVLKRIDAYEDHHVKREQLSTRERMSQILAMLNSEDFTPFERLFSVEEGRAGVVVTFLALMELVKELLVELYQTEPFSTIYVKAY,not soluble
3,MAHHHHHHMPKYYCEYCDIYLTHSSPVGRRQHIHGRKHISAKIEYFQNLLREEGITPQNFLGFLNNRNINNPLGNPMMNYMNPNMYMKYNPMKSYHSYSMRSSHPYRLNIHNNKYSRAGYVPPSHHKYSVNPMHNNYHQAHNNYSYPNSINPSNQINYSNNYGSNNFNNSNEFNKNMNEKDNINNNDIHDNKVKTDENDPINNDNLNNTRNFSYEENHYSTDHKKPSFLNPENSKEHIESDIS,not soluble
4,MFASKDINDLIAIVAGLRNRESGCIWNIKQTFESLIPYMLEEVYEVIDAIERKNRTDLCDELGDLLLQVVYHATIAQEEGSFTFEDVVYAITSKMIRRHPHVFGNAEQKKRGFIEDEWERIKKTERAEQNKCYEAVNLPTNSTTSILEKIKKLQPAHQEALALQKAAATVGFNWHESHKFFAKIEEEINELKDAIKNDKTSDIEAEFGDLYFSLLNLALHLNIDSQKALKKTNTKFRNRFTYIEESLYTQSKTLANTSLKEMESLWNKAKNKK,not soluble
5,MVKRRNLLHFNNGARSERDLGDLVTKVFEKAAKKEPQPLYTFSLPLLSVQDEIRVYCKKKNIKIGYDTLFMEITFSADREAVDELIKHFFTENKLYLRGRFYLSAAVV,not soluble
6,MHIRTTTPVLTSLTSCNFGTASLGDTSPYCMALRPFPLGNTPLHAVIRRSAREFECVEAVPASNAVRSPSTASWVSAESLDSIISLANRTSEEMEVDQLIYRLCRSLYHVAKKKSAQIHCHPNHQERQQQQQQASSSGWRSVECEGHFSNMRGREDWCPLLHLFDPRSYYKVMGQPSQHDGCKLCGDVVGTESSPEGVSQWLMSELSVTRLTGGNSNHVYRLGHASFPKKAVLLRVYGDGGGGDVIDRARDIKVMRLMSKSEMGPGLLHTFHWGRVEEFMDGVLTCTTEKLLTSPSLLADVYGGLSKMHQLDYTPLLPENMRTKGMSNGHNSSQSVSDTVSKSGGGQEGPDGTVGGVNELESTCHTSFERVCLRLLRLVSLNVVEEHRHSLESWLAGEVMFVRRELQYRGIPVVLSHNDLNPGNILLSDGAGEASGTVFSDEELRVENTPLSKRYVTRKGKNMNLVERRGFLFIDFEYADANYRCFDLGNTLCELDYDYTRGTEAGGRGFIKYLFVFPPPAMEEAWRGLGEEYPRMPELIYDAWRRGVCDGSSDIGSVALLAVRRYFAERDNVPLETVELSEAQVGEVLLGMLASHLYWTIWSMTMGSAPDNCVECEDCDDQMFAVGGSGLDYMRYGECRLREYIALRGWLAEKGLLS,not soluble
7,MGSDKIHHHHHHMKGIISLIHGGKTFVDQIHSACQDAGIELYVISSNTVDADLLQNMSDKATVLEVIEGTDLNFESVLSFVEKLQQSNKQALACISVWENYRPLMARLNQALGAQDMCPEQVNLLRDKHLLRKVLYDAGLSQVNSRILTQEVFIQIQKNRELAFVKPRQGIASYGAFKLRPSTQWQQITEIAEQIQSDAVFSSSFADEVEFVAEDYISGVEFCFEIIHHDGQCNLIAIHEKLEVGEQNLTTLENVSASPPISLNRKQIEQANLWVSSIFERLELGSGCYHLEAKFDNNQWEVIEINPRIGGSYINESVAHVAGYSLLELWIRSLLRAGCSEYQAFLKVLSPHSEQFFERQQGSYFRVFFAEPNRTISRLNFKLGTPPIHKKLLMKEGQTTPNASRELFMAQALWSWSVSQDSVQTRAQISESLTALEVEYE,not soluble
8,TIDEINKAISSSLSRERIMETAMAQVERITGCEFVAILQAENGGLKVMSSHASGLEIPAALRPGAPLSLAGCTAWTAFRTGRSASIADLADTRKPGTVSRTLLAAGIRSLLAIPLMSRDQVKGVLLLGDTEPDKFARGETFTIEKIASQMAVALENARLYEDMR,not soluble
9,KAPLDEIADDSFWSDETLVKYYVNDLYSEISVDGLQLQENRSDNSVSAQRDKYRASWFKFNYDMVSASDPQDDDVWEDYYVKVRKCNRFFERIGTSTIEESEKSRLTGEVHFLRAMFYFEMVKRYGGVILLDKVLTMEDNWEIPRSSEKECYDFILEDLKKATEMLPASYGSREKGRATKGAAYALKSRVELYDKRYEDVIKSCAEVYKLGYELVDGTTPEKYRSIWWTTNKDNKEIIFDVQYKSPDVYNNMMVCNMVTYINDKYGDRGWGGLGPTQELIDAFEMADGTPATQYSQAPADQVFDINTCGIYEGREPRFYANIVFHGSQIFFNADKGAVTVDRYLMDTPDKGDGSLTGYNVWKWIDYDNYNYPYAGAGSPDFSTNWIILRYAEIYLNDAEARLETGDVEGARKAVNMIRQRVGLPDLTESDPEKLRELIRKERRIEFAFEEQRFYDVRRWKIGPETQTTLHGVRFVSPTEFKVTKTDIRTWNDRLYLTPVPHDEIVRSSVLKQNLGY,soluble
10,MSTRKDYLSFIAVAAHEFVHTWNVKQYRPKGIVPYDYQQENYSNLLWLVEGSTSYLQYQLLLRGNLMTTDEFFTALAKRITAHAHKPGKESQSVAQASFDAWISEGGDYGNNHSVNIYSEGFLASWLLDFDILAKTALEHHHHHH,not soluble
11,MAQQGVFTLPANTSFGVTAFANAANTQTIQVLVDNVVKATFTGSGTSDKLLGSQVLNSGSGAIKIQVSVNGKPSDLVSNQTILANKLNFAMVGSEDGTDNDYNDGIAVLNWPLG,soluble
12,KMAHIGSWKWDIVTGELYWSDELYLIFGLDPQEFRPAYNSFFNYIHPGDRDFVDNAIKKALNGEQLYDNDHRIISADGEERIVHSHGEVIFDEKNTPVRMRGTLQDIT,not soluble
13,MGSDKIHHHHHHMFSKIEFKNFMSFSNLTFDLLNRGKCKDIIAIYGENGSGKTNIVEAFKLLVLSLQSMESLNENTRLQSLLKEQTNKEENQKTNFGDISEILDKISFFTTFKGIAKNTHRIASEGNTILKYYFNIEKDNGYYLLEYNENNELVKEELVFKIKSNKGVHFSITNIDGLSQSLNKTIFKNTIFKDLTEQIEKYWGKHTFLSIFNNYCLEVNEEFINEQVSINFQKVVDEFDKIFIWSGNFRGPFHSTELLLKDISKGKIDKSEKEKLSYTEEIIYKYFSALYIDIKDVKYKQDAQGQEIKYELMIRKNIGGDLLDVPISLESQGTKNLLDLLKVFNNVLDGKICIVDEIDSGIHDLLMNSILNDLKGSVNGQLIFTTHDTTLLKELSPSSAYFLNVDIKGNKVIISGNEADKKIGVNNNLEKLYLSGFFGAVPDPLDIDFSDLFLDHNLSED,not soluble
14,GPGSMIPGLPPAFDVECNRMEDVFASVKSRTVGKDGNLLSPEESWVQRELQYYENLYTEQQELTVCLVTFNVACKKPPANLAALISLKMAEDTNRPVDLIMVSLQEVDMSASAMLKEETEASTPWVVGLHAAVGADSRSPSNTPYFAFPPKQLVGLLLCVYLRRQLLPYMQEMSVATVATGALGSMGNKGAIGLRLVLHRTSLCLINVHLAAGQSNVVKT,not soluble
15,MKIIILHGLYMHGLVMQPLSQKLRKLGYETQVLSYNTVAIDESSLFDSIDHSLNPLTANVLVGHSLGGLMIKRYLANRKPTTSLISHVVAIGSPLKGASIVGRIQDLGLGAILGNSPHHGLNKHHDAWAFPQKLGSIAGTVPIGARPLLIRNDNTMSDGTVTVEETRLDGMQDHIEVKQTHTSLIYNTFVPQQIDHFIRTDYFCR,not soluble
16,EIILNASAMFNHSNAKLALSIDKKLRKVIVTPDMHRVHHSVMVKETHSNFGFFLSVWDRWFGTYRAQPALGHNDVVIGVPEIREASEQRLDKLLTQPFRYREGKGKNVD,not soluble
17,MYGYYSIGELTKEFSITARTLRYYEEEGLLVPCRHGSARFYTQTDRHKLKQILRAKRVKFSLSEISEMLSMVGKPPTDEKKLKELIAGVNKKRADLQQMQRDIDDFLHDLERIEETLFESLAELGVNR,not soluble
18,SLKIYRSTLLHTPASPFAVPDALQTFSDGALAVGDTGTIAHLGTFTEVLAEVRAACPDAEVHDLRGGVLLPGFIDTHVHYPQVRVLGGLGMALLEWLDRNTLPEEARLADAAYARTIAGEFLHGLASHGTTTALVFGSHFAGAMDEFFAEAAARGLRVVAGQVVSDRLLRPELHTTPERAYAEGKALIERWHGQGRSLYAVTPRFSLSASEGILDACAALLTEFPDVRFTSHINENNQEIEVVRGLFPGARDYLDTYERAGLVTPRSVFAHNVHPNERELGVLAAQRCSVAHCPCSNSALGSGLFPLRRHLAAGVHVALGTDVGGGTGFSLLKEGLQAYFMQQLLGEEGAALSPAHLLYLATLAGAQALGLDGQVGDFTPGKQFDAVWLRPRAGSTLATVLAHAESEERTLAALFALGTGDDVERVWVGGGVVFAREAEA,soluble
19,MSDAAKPDRPDEALVLEYDFDAPPAKVWRAVTIPALRERWSPDCDLAGAEPESTIAGEEVRYRLRDSEPPFRESHVIFRIEPNEDGGTRFRIIQQACDDLAKLPQPANTNCRLMMAALEHHHHHH,soluble
20,MAHHHHHHMASLMGFLTVSKISEPPKASVAQEAFDYIYERIAAPAEVDVERFLEIGHFESLATATCLSLEDLSLYLFAFAVDESAKRIYKISEKHFVAWMAGLISKLPRNAAPPTRENAYAPLFAAAHDAIVDLNNTIRSNEEKRSKFYQFLYNWCLKGNDASDRVDSAKELWSCFFSASPVSLTVEEARRKFTAYVCFPRINQWLDFITMLGEKATESKSGRVAVEQSGVSFDTWTQLLLFARFDNYDAYDDEDSWPVTMDDFVVYVRKLEESKKV,not soluble
21,GSGIMAASRPLSRFWEWGKNIVCVGRNYADHVREMRSAVLSEPVLFLKPSTAYAPEGSPILMPAYTRNLHHELELGVVMGKRCRAVPEAAAMDYVGGYALCLDMTARDVQDECKKKGLPWTLAKSFTASCPVSAFVPKEKIPDPHKLKLWLKVNGELRQEGETSSMIFSIPYIISYVSKIITLEEGDIILTGTPKGVGPVKENDEIEAGIHGLVSMTFKVEKPEY,soluble
22,QILSPNYKARADSNAFYQKPVYPSRGVIYDRNGELLVYNEPAYDLVAVTKEVGEFDTLALCQTLNVEPEYVRKRFQDIRDRRINPGYSPYVPQLLLAQLNPREAGRFQEQLFKFPGFSIRPRAIRQYKYHGAAHVLGYLSEANMRDLERDSSLIAGDYVGRSGIERQYEKTLRGEKGIEVLLRDARGRIKGHYSDGKYDSPAIPGRDLTLSIDSKLQTLGEQLMQGKRGAIVMIEPETGEVLCLVSSPSYDPSLLAGKDRGKNHLEMEHDRNKPLYARAIQATYPPGSTFKPAQGAIFLQEGVIRPTDAFSCYHGFPPLNNRPACHSHGSP,not soluble
23,AIAGRKSNRAKEKKQRRLEERAAMDAVCAKVDAANKLEDPLSAMPVFKKYDRNGLNLQIECKRVTALSPDTVEWAYELTRANMQTLYEQSEWGWKEREKREEMKDERAWYLLARDADSTPLAFSHFRFDVECGDEVLYCYEVQLESKVRRKGLGKFLIQILQLIANSTQMKKVMLTVFKHNHGAYQFFREALQFEIDETSPSMSGCCGEDCSYEILSRRTKYGEVSGHAHGGHCGGCCH,soluble
